Test results reported in article PMC4822050, “Hemi-methylated DNA opens a closed conformation of UHRF1 to facilitate its histone recognition” (Nature Communications, 2016).

T1: UHRF1^Δ627–674 (human, UniProt Q96T88 1-793, Δ627–674)
T1 construct: also called spacer deletion mutant
T1 sequence (looked up): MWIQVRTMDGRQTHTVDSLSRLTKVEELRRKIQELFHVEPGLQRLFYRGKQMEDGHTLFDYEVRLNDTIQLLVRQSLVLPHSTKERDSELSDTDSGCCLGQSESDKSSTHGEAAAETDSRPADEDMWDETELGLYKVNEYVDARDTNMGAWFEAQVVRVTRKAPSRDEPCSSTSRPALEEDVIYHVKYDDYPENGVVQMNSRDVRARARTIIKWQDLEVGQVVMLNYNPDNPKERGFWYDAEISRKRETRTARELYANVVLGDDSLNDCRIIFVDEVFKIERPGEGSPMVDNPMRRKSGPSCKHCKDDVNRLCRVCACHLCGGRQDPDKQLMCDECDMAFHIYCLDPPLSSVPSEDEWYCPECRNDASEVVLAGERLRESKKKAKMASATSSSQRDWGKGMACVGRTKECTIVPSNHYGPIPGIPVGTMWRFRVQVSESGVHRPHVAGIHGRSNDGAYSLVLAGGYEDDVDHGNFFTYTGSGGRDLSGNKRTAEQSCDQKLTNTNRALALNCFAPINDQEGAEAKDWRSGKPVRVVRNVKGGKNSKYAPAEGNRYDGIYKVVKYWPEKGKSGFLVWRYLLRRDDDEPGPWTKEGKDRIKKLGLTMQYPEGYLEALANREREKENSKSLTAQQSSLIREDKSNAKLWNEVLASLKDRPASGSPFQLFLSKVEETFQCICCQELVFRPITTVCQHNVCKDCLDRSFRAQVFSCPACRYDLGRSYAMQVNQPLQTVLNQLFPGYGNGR

T2: PHD of UHRF1 (residues 307–366) (human, UniProt Q96T88 307-366)
T2 construct: human UHRF1, PHD, residues 307–366; also called plant homeodomain; the isolated PHD
T2 sequence (looked up): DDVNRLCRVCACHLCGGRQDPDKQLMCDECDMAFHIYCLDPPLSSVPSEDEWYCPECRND

T3: full-length UHRF1 (residues 1–793) (human, UniProt Q96T88 1-793)
T3 construct: human UHRF1, residues 1–793; monomer by gel filtration; also called wild-type UHRF1; ICBP90
T3 sequence (looked up): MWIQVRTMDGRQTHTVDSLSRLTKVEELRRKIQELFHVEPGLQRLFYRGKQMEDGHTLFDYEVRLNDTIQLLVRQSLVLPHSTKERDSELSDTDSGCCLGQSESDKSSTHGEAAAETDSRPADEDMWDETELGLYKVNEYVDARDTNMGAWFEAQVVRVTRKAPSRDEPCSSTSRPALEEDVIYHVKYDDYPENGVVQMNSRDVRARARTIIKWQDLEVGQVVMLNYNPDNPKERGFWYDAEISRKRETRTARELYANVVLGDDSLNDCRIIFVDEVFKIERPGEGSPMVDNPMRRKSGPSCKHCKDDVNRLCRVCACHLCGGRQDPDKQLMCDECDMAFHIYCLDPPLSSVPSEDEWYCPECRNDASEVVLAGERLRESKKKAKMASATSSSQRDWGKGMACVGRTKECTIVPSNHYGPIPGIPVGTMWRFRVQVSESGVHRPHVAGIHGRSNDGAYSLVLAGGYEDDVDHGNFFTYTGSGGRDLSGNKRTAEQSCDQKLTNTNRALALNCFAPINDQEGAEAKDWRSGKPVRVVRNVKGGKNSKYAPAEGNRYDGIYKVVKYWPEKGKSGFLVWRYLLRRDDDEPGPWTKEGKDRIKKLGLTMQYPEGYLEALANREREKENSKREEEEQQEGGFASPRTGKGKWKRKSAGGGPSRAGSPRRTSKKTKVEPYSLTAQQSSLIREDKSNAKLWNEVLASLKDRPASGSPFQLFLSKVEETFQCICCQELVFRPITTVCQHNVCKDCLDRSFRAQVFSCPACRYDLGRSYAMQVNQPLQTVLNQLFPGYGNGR


Experiments:
Conditions in all cases: both partners purified
[1] = molecular target: T1, UHRF1^Δ627–674; assay: pull-down; GST pull-down: 15 μg GST-tagged protein with 40 μg recombinant protein in 500 μl 20 mM HEPES-NaOH pH 8.0, 100 mM NaCl, 5% glycerol, 0.1% Triton X-100, 4 °C, glutathione resin, Coomassie staining; some panels with increasing hm-DNA
[2] = molecular target: T2, PHD of UHRF1 (residues 307–366); assay: ITC; 0.05 mM protein in the cell, 0.5 mM protein or peptide in the syringe, iTC200, 18 °C, 10 mM HEPES pH 8.0, 100 mM NaCl
[3] = molecular target: T3, full-length UHRF1 (residues 1–793); assay: as above

binding result [1]	fold higher binding affinity than with full-length UHRF1 [2] [fold]	Kd [3] [µM]	Binder
binds	–	–	GST-tagged Spacer of UHRF1 (domain or fragment, human, UniProt Q96T88 587-674, looked up, also called GST-Spacer) PGPWTKEGKDRIKKLGLTMQYPEGYLEALANREREKENSKREEEEQQEGGFASPRTGKGKWKRKSAGGGPSRAGSPRRTSKKTKVEPY
–	~34	26	ARTKQTARKSTGGKAPR (peptide, UniProt P68431 2-18, looked up, histone H3, residues 1–17; also called H3K9me0; unmethylated histone H3) [H3 peptide (1–17)]
